A short description of the experiment: Feed conversion efficiency in pigs after sub-cutaneous implantation of rPST compressed tablets, 0-7 days. Type of experiment: in vivo. To be noted: 0-7 days (Table 6). From the text: A number of the compressed tablets were implanted via sub-cutaneous injection in pigs.

B1: PST Injection A: daily injection of porcine somatotropin, 5 mg/day, comparator (source A) (protein, UniProt P01248 27-216, looked up)
Somatotropin: FPAMPLSSLFANAVLRAQHLHQLAADTYKEFERAYIPEGQRYSIQNAQAAFCFSETIPAPTGKDEAQQRSDVELLRFSLLLIQSWLGPVQFLSRVFTNSLVFGTSDRVYEKLKDLEEGIQALMRELEDGSPRAGQILKQTYDKFDTNLRSDDALLKNYGLLSCFKKDLHKAETYLRVMKCRRFVESSCAF
B1 registered an FCR of 1.97, a Feed intake of 16.33 kgs and a Weight increase of 8.30 kgs.

B2: PST Injection M: daily injection of porcine somatotropin, 5 mg/day, comparator (source M) (protein, UniProt P01248 27-216, looked up)
Somatotropin: FPAMPLSSLFANAVLRAQHLHQLAADTYKEFERAYIPEGQRYSIQNAQAAFCFSETIPAPTGKDEAQQRSDVELLRFSLLLIQSWLGPVQFLSRVFTNSLVFGTSDRVYEKLKDLEEGIQALMRELEDGSPRAGQILKQTYDKFDTNLRSDDALLKNYGLLSCFKKDLHKAETYLRVMKCRRFVESSCAF
Molecule B2 registered an FCR of 1.78, a Feed intake of 16.78 kgs and a Weight increase of 9.43 kgs.
